Data reported in patent US20200231652A1.
Read-outs that look alike come from different tables or passages of the source.

How the values were obtained:
TGF-β1 [1] = molecular target: TGF-β1 (UniProt P01137); test: cell-based or functional assay
TGF-β3 = TGF-β3 (UniProt P10600); test: cell-based or functional assay
TGF-β1 [2] = molecular target: TGF-β1 (UniProt P01137)
TGF-β1 [3] = molecular target: TGF-β1 (UniProt P01137); remark: listed apart in the source

Chain of T22d35 (P37173 other isoform, or with tags, fused parts or gaps limits assumed): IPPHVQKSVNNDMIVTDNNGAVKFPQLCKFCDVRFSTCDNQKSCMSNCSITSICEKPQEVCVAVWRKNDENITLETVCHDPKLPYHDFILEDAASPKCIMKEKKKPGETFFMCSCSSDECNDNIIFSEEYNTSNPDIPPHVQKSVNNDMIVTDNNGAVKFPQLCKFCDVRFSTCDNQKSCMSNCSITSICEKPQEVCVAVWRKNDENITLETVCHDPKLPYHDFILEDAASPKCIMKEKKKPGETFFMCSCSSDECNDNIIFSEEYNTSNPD
Chain of TGF-β1 (P01137 279-390 limits assumed): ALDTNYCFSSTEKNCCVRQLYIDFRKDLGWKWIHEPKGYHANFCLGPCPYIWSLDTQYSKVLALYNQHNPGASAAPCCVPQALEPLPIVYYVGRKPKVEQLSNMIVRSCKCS
Chain of TGF-β3 (P10600 301-412 limits assumed): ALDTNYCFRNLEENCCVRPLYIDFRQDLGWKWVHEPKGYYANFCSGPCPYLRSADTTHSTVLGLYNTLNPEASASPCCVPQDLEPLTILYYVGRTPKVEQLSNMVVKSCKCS

Row | Av IC50, TGF-β neutralization, Mv1Lu cell luciferase reporter assay (TGF-β1 [1]) [nM] | Av IC50, TGF-β neutralization, Mv1Lu cell luciferase reporter assay (TGF-β3) [nM] | Fold Change Fc-T2m, A549 cell IL-11 release assay [table] (TGF-β1 [2]) [fold] | Fold Change T22d35, A549 cell IL-11 release assay [table] (TGF-β1 [2]) [fold] | IC50, A549 cell IL-11 release assay [table] (TGF-β1 [2]) [nM] | IC50, A549 cell IL-11 release assay [table] (TGF-β1 [3]) [nM] | IC50, A549 cell IL-11 release assay (TGF-β1 [1]) [nM] | IC50, A549 cell IL-11 release assay (second set, FIG. 4C) (TGF-β1 [1]) [nM] | Substance
1 | 0.506 | 0.323 |  |  |  |  |  |  | T2-hIgG1Fc fusion from R&D
2 | 1.23 | 0.033 | 0.1 | 1 | 0.58 | 0.526 | 0.5 | 0.5 | T22d35 (from UniProt P37173 24-222) (receptor)
